{"source": "paper PMC9519731", "about": "“The soluble form of CD160 acts as a tumor mediator of immune escape in melanoma” (Cancer Immunology, Immunotherapy : CII, 2022)", "proteins": {"B1": {"name": "soluble form of CD160 (sCD160) released by melanoma cell lines (natural protein, UniProt O95971 25-159, looked up)", "chain": "GCINITSSASQEGTRLNLICTVWHKKEEAEGFVVFLCKDRSGDCSPETSLKQLRLKRDPGIDGVGEISSQLMFTISQVTPLHSGTYQCCARSQKSGIRLQGHFFSILFTETGNYTVTGLKQRQHLEFSHNEGTLS", "notes": "soluble form of CD160, derived from the CD160-GPI isoform, released by human melanoma cell lines; recovered as a 55-kDa species called dimeric sCD160; also called secreted sCD160; sCD160 produced by WM1361; source: endogenous, culture supernatant of melanoma cell lines (WM1361, COLO829, SKMEL5)"}}, "target": "the molecule itself", "test": "immunoprecipitation, non-reducing SDS-PAGE and Western blot; culture supernatants of confluent melanoma cell lines immunoprecipitated with H3 mAb, SDS-10% PAGE under non-reducing condition, blot with HRP-coupled H3 mAb"}
{"protein": "B1", "values": [{"measurement": "stoichiometry N", "value": 2}]}
